Measured values from IntAct's records for PubMed 18940611.

B1: Programmed cell death 6-interacting protein (Homo sapiens), Q8WUM4 (parent)
chain: MATFISVQLKKTSEVDLAKPLVKFIQQTYPSGGEEQAQYCRAAEELSKLRRAAVGRPLDKHEGALETLLRYYDQICSIEPKFPFSENQICLTFTWKDAFDKGSLFGGSVKLALASLGYEKSCVLFNCAALASQIAAEQNLDNDEGLKIAAKHYQFASGAFLHIKETVLSALSREPTVDISPDTVGTLSLIMLAQAQEVFFLKATRDKMKDAIIAKLANQAADYFGDAFKQCQYKDTLPKEVFPVLAAKHCIMQANAEYHQSILAKQQKKFGEEIARLQHAAELIKTVASRYDEYVNVKDFSDKINRALAAAKKDNDFIYHDRVPDLKDLDPIGKATLVKSTPVNVPISQKFTDLFEKMVPVSVQQSLAAYNQRKADLVNRSIAQMREATTLANGVLASLNLPAAIEDVSGDTVPQSILTKSRSVIEQGGIQTVDQLIKELPELLQRNREILDESLRLLDEEEATDNDLRAKFKERWQRTPSNELYKPLRAEGTNFRTVLDKAVQADGQVKECYQSHRDTIVLLCKPEPELNAAIPSANPAKTMQGSEVVNVLKSLLSNLDEVKKEREGLENDLKSVNFDMTSKFLTALAQDGVINEEALSVTELDRVYGGLTTKVQESLKKQEGLLKNIQVSHQEFSKMKQSNNEANLREEVLKNLATAYDNFVELVANLKEGTKFYNELTEILVRFQNKCSDIVFARKTERDELLKDLQQSIAREPSAPSIPTPAYQSSPAGGHAPTPPTPAPRTMPPTKPQPPARPPPPVLPANRAPSATAPSPVGAGTAAPAPSQTPGSAPPPQAQGPPYPTYPGYPGYCQMPMPMGYNPYAYGQYNMPYPPVYHQSPGQAPYPGPQQPSYPFPQPPQQSYYPQQ
partner: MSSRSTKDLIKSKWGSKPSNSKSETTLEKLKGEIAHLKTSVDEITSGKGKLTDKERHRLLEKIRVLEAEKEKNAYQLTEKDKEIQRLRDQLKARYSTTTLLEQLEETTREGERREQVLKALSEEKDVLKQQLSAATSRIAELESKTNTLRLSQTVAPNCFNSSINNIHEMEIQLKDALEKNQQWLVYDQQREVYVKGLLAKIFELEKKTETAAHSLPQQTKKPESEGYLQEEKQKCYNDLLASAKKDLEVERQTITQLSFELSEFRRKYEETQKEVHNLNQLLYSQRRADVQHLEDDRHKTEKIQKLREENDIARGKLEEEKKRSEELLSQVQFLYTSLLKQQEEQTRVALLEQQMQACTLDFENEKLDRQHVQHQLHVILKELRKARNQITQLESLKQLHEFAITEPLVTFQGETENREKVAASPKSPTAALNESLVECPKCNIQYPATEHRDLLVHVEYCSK
B2: Programmed cell death protein 6 (Homo sapiens), O75340 (parent)
chain: MAAYSYRPGPGAGPGPAAGAALPDQSFLWNVFQRVDKDRSGVISDTELQQALSNGTWTPFNPVTVRSIISMFDRENKAGVNFSEFTGVWKYITDWQNVFRTYDRDNSGMIDKNELKQALSGFGYRLSDQFHDILIRKFDRQGRGQIAFDDFIQGCIVLQRLTDIFRRYDTDQDGWIQVSYEQYLSMVFSIV
B3: Programmed cell death 6-interacting protein (Homo sapiens), Q8WUM4 (parent)
chain: B1 chain

Variants of: B1
Details: with cep55_human CEP55, Q53EZ4

Variant | effect of a mutation on the interaction
P802A | disrupting interaction

Variants of: B2
Details: with pdc6i_human PDCD6IP

Variant | effect of a mutation on the interaction
Y91A | disrupting interaction
W95A | disrupting interaction
Y124A | disrupting interaction
R125A | disrupting interaction
D169A | disrupting interaction
Y180A | disrupting interaction

Variants of: B3
Details: with pdcd6_human PDCD6, O75340

Variant | effect of a mutation on the interaction
P804A | disrupting interaction
P802A | disrupting interaction
Y803A | disrupting interaction

Variants of: B3
Details: with pdcd6_human PDCD6, O75340
Remark: another data set of the same source

Variant | effect of a mutation on the interaction
P804A | decreasing interaction
P802A | decreasing interaction
Y803A | decreasing interaction
